Source: the supplement of paper PMC5998384

Legend:
[1] = tested on: HeLa Kyoto; experiment: solubility in G1/S (NP-40 vs SDS abundance) (log2 ratio); higher = more soluble; conditions: cell cycle stage: G1/S
[2] = tested on: HeLa Kyoto; experiment: thermal stability score vs G1/S (z-score of summed log2 fold changes over temperatures); higher = more thermally stable than in G1/S
[3] = tested on: HeLa Kyoto; experiment: solubility change mitosis vs G1/S (difference of NP-40 vs SDS log2 ratios) (log2 ratio difference); higher = more soluble in mitosis
[4] = tested on: HeLa Kyoto; experiment: melting temperature (median over replicates), in situ; higher = more thermally stable
[5] = cell cycle stage: early G1 (4.5 h after nocodazole release)
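Wherever melting temperature (median over replicates), in situ is given: HeLa Kyoto cells synchronized by double thymidine or nocodazole block, proteins quantified by TMT10plex mass spectrometry, three independent biological replicates.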
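Wherever solubility change mitosis vs G1/S (difference of NP-40 vs SDS log2 ratios) is given: synchronized HeLa Kyoto cells (double thymidine block for G1/S, nocodazole release for mitosis), protein amounts in NP-40 versus SDS lysates quantified by mass spectrometry, three biological replicates.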
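Wherever solubility in G1/S (NP-40 vs SDS abundance) is given: HeLa Kyoto cells arrested at G1/S by double thymidine block, proteins quantified by TMT10plex mass spectrometry in mild NP-40 versus SDS extracts, three biological replicates.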
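Wherever thermal stability score vs G1/S (z-score of summed log2 fold changes over temperatures) is given: synchronized HeLa Kyoto cells, proteins quantified by TMT10plex mass spectrometry, three biological replicates, mitosis taken 0.5 h after nocodazole release, G1/S directly after double thymidine block.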

| Sequence | solubility in G1/S (log2) [1] | thermal stability score [2, 5] | thermal stability score ([2]; cell cycle stage: mitosis) | solubility change mitosis (log2) [3] | melting temperature ([4]; cell cycle stage: G1/S) [°C] | melting temperature ([4]; cell cycle stage: mitosis) [°C] |
| --- | --- | --- | --- | --- | --- | --- |
| MNKLYIGNLSENAAPSDLESIFKDAKIPVSGPFLVKTGYAFVDCPDESWALKAIEALSGKIELHGKPIEVEHSVPKRQRIRKLQIRNIPPHLQWEVLDSLLVQYGVVESCEQVNTDSETAVVNVTYSSKDQARQALDKLNGFQLENFTLKVAYIPDEMAAQQNPLQQPRGRRGLGQRGSSRQGSPGSVSKQKPCDLPLRLLVPTQFVGAIIGKEGATIRNITKQTQSKIDVHRKENAGAAEKSITILSTPEGTSAACKSILEIMHKEAQDIKFTEEIPLKILAHNNFVGRLIGKEGRNLKKIEQDTDTKITISPLQELTLYNPERTITVKGNVETCAKAEEEIMKKIRESYENDIASMNLQAHLIPGLNLNALGLFPPTSGMPPPTSGPPSAMTPPYPQFEQSETETVHLFIPALSVGAIIGKQGQHIKQLSRFAGASIKIAPAEAPDAKVRMVIITGPPEAQFKAQGRIYGKIKEENFVSPKEEVKLEAHIRVPSFAAGRVIGKGGKTVNELQNLSSAEVVVPRDQTPDENDQVVVKITGHFYACQVAQRKIQEILTQVKQHQQQKALQSGPPQSRRK [IGF2BP3] | 0.241 | 0.549 | 0.841 | 0.0855 | 46.9 | 47.6 |
| MNKPITPSTYVRCLNVGLIRKLSDFIDPQEGWKKLAVAIKKPSGDDRYNQFHIRRFEALLQTGKSPTSELLFDWGTTNCTVGDLVDLLIQNEFFAPASLLLPDAVPKTANTLPSKEAITVQQKQMPFCDKDRTLMTPVQNLEQSYMPPDSSSPENKSLEVSDTRFHSFSFYELKNVTNNFDERPISVGGNKMGEGGFGVVYKGYVNNTTVAVKKLAAMVDITTEELKQQFDQEIKVMAKCQHENLVELLGFSSDGDDLCLVYVYMPNGSLLDRLSCLDGTPPLSWHMRCKIAQGAANGINFLHENHHIHRDIKSANILLDEAFTAKISDFGLARASEKFAQTVMTSRIVGTTAYMAPEALRGEITPKSDIYSFGVVLLEIITGLPAVDEHREPQLLLDIKEEIEDEEKTIEDYIDKKMNDADSTSVEAMYSVASQCLHEKKNKRPDIKKVQQLLQEMTAS [IRAK4] | 0.372 | 0.383 | 1.05 | -0.193 | 50.6 | 49.9 |
| MNLEKLSKPELLTLFSILEGELEARDLVIEALKAQHRDTFIEERYGKYNISDPLMALQRDFETLKEKNDGEKQPVCTNPLSILKVVMKQCKNMQERMLSQLAAAESRHRKVILDLEEERQRHAQDTAEGDDVTYMLEKERERLTQQLEFEKSQVKKFEKEQKKLSSQLEEERSRHKQLSSMLVLECKKATNKAAEEGQKAGELSLKLEKEKSRVSKLEEELAAERKRGLQTEAQVEKQLSEFDIEREQLRAKLNREENRTKTLKEEMESLKKIVKDLEASHQHSSPNEQLKKPVTVSKGTATEPLMLMSVFCQTESFPAERTHGSNIAKMTNTGLPGPATPAYSYAKTNGHCDPEIQTTRELTAGNNVENQVPPREKSVALAQEKPVENGGCPVGIETPVPMPSPLSSSGSSLSPSSTASSSLTSSPCSSPVLTKRLLGSSASSPGYQSSYQVGINQRFHAARHKFQSQADQDQQASGLQSPPSRDLSPTLIDNSAAKQLARNTVTQVLSRFTSQQGPIKPVSPNSSPFGTDYRNLANTANPRGDTSHSPTPGKVSSPLSPLSPGIKSPTIPRAERGNPPPIPPKKPGLTPSPSATTPLTKTHSQAASLTTAEDLASSCSSNTVVANGKDVELLLPTSS [CTTNBP2NL] | 0.435 | -2.02 | -1.85 | -0.363 | 49.9 | 50.3 |
| MNPRQGYSLSGYYTHPFQGYEHRQLRYQQPGPGSSPSSFLLKQIEFLKGQLPEAPVIGKQTPSLPPSLPGLRPRFPVLLASSTRGRQVDIRGVPRGVHLRSQGLQRGFQHPSPRGRSLPQRGVDCLSSHFQELSIYQDQEQRILKFLEELGEGKATTAHDLSGKLGTPKKEINRVLYSLAKKGKLQKEAGTPPLWKIAVSTQAWNQHSGVVRPDGHSQGAPNSDPSLEPEDRNSTSVSEDLLEPFIAVSAQAWNQHSGVVRPDSHSQGSPNSDPGLEPEDSNSTSALEDPLEFLDMAEIKEKICDYLFNVSDSSALNLAKNIGLTKARDINAVLIDMERQGDVYRQGTTPPIWHLTDKKRERMQIKRNTNSVPETAPAAIPETKRNAEFLTCNIPTSNASNNMVTTEKVENGQEPVIKLENRQEARPEPARLKPPVHYNGPSKAGYVDFENGQWATDDIPDDLNSIRAAPGEFRAIMEMPSFYSHGLPRCSPYKKLTECQLKNPISGLLEYAQFASQTCEFNMIEQSGPPHEPRFKFQVVINGREFPPAEAGSKKVAKQDAAMKAMTILLEEAKAKDSGKSEESSHYSTEKESEKTAESQTPTPSATSFFSGKSPVTTLLECMHKLGNSCEFRLLSKEGPAHEPKFQYCVAVGAQTFPSVSAPSKKVAKQMAAEEAMKALHGEATNSMASDNQPEGMISESLDNLESMMPNKVRKIGELVRYLNTNPVGGLLEYARSHGFAAEFKLVDQSGPPHEPKFVYQAKVGGRWFPAVCAHSKKQGKQEAADAALRVLIGENEKAERMGFTEVTPVTGASLRRTMLLLSRSPEAQPKTLPLTGSTFHDQIAMLSHRCFNTLTNSFQPSLLGRKILAAIIMKKDSEDMGVVVSLGTGNRCVKGDSLSLKGETVNDCHAEIISRRGFIRFLYSELMKYNSQTAKDSIFEPAKGGEKLQIKKTVSFHLYISTAPCGDGALFDKSCSDRAMESTESRHYPVFENPKQGKLRTKVENGEGTIPVESSDIVPTWDGIRLGERLRTMSCSDKILRWNVLGLQGALLTHFLQPIYLKSVTLGYLFSQGHLTRAICCRVTRDGSAFEDGLRHPFIVNHPKVGRVSIYDSKRQSGKTKETSVNWCLADGYDLEILDGTRGTVDGPRNELSRVSKKNIFLLFKKLCSFRYRRDLLRLSYGEAKKAARDYETAKNYFKKGLKDMGYGNWISKPQEEKNFYLCPV [ADAR] | -0.466 | 2.76 | 5.55 | 0.346 | 47.9 | 49 |
| MNQEKLAKLQAQVRIGGKGTARRKKKVVHRTATADDKKLQSSLKKLAVNNIAGIEEVNMIKDDGTVIHFNNPKVQASLSANTFAITGHAEAKPITEMLPGILSQLGADSLTSLRKLAEQFPRQVLDSKAPKPEDIDEEDDDVPDLVENFDEASKNEAN [BTF3L4] | 0.114 | -0.215 | -1.23 | 0.243 | 56.3 | 54.6 |
| MNREDRNVLRMKERERRNQEIQQGEDAFPPSSPLFAEPYKVTSKEDKLSSRIQSMLGNYDEMKDFIGDRSIPKLVAIPKPTVPPSADEKSNPNFFEQRHGGSHQSSKWTPVGPAPSTSQSQKRSSGLQSGHSSQRTSAGSSSGTNSSGQRHDRESYNNSGSSSRKKGQHGSEHSKSRSSSPGKPQAVSSLNSSHSRSHGNDHHSKEHQRSKSPRDPDANWDSPSRVPFSSGQHSTQSFPPSLMSKSNSMLQKPTAYVRPMDGQESMEPKLSSEHYSSQSHGNSMTELKPSSKAHLTKLKIPSQPLDASASGDVSCVDEILKEMTHSWPPPLTAIHTPCKTEPSKFPFPTKESQQSNFGTGEQKRYNPSKTSNGHQSKSMLKDDLKLSSSEDSDGEQDCDKTMPRSTPGSNSEPSHHNSEGADNSRDDSSSHSGSESSSGSDSESESSSSDSEANEPSQSASPEPEPPPTNKWQLDNWLNKVNPHKVSPASSVDSNIPSSQGYKKEGREQGTGNSYTDTSGPKETSSATPGRDSKTIQKGSESGRGRQKSPAQSDSTTQRRTVGKKQPKKAEKAAAEEPRGGLKIESETPVDLASSMPSSRHKAATKGSRKPNIKKESKSSPRPTAEKKKYKSTSKSSQKSREIIETDTSSSDSDESESLPPSSQTPKYPESNRTPVKPSSVEEEDSFFRQRMFSPMEEKELLSPLSEPDDRYPLIVKIDLNLLTRIPGKPYKETEPPKGEKKNVPEKHTREAQKQASEKVSNKGKRKHKNEDDNRASESKKPKTEDKNSAGHKPSSNRESSKQSAAKEKDLLPSPAGPVPSKDPKTEHGSRKRTISQSSSLKSSSNSNKETSGSSKNSSSTSKQKKTEGKTSSSSKEVKEKAPSSSSNCPPSAPTLDSSKPRRTKLVFDDRNYSADHYLQEAKKLKHNADALSDRFEKAVYYLDAVVSFIECGNALEKNAQESKSPFPMYSETVDLIKYTMKLKNYLAPDATAADKRLTVLCLRCESLLYLRLFKLKKENALKYSKTLTEHLKNSYNNSQAPSPGLGSKAVGMPSPVSPKLSPGNSGNYSSGASSASASGSSVTIPQKIHQMAASYVQVTSNFLYATEIWDQAEQLSKEQKEFFAELDKVMGPLIFNASIMTDLVRYTRQGLHWLRQDAKLIS [AFF4] | 0.00478 | 0.474 | 1.75 | 0.309 | 48.6 | 51 |
| MNRTKGDEEEYWNSSKFKAFTFDDEDDELSQLKESKRAVNSLRDFVDDDDDDDLERVSWSGEPVGSISWSIRETAGNSGSTHEGREQLKSRNSFSSYAQLPKPTSTYSLSSFFRGRTRPGSFQSLSDALSDTPAKSYAPELGRPKGEYRDYSNDWSPSDTVRRLRKGKVCSLERFRSLQDKLQLLEEAVSMHDGNVITAVLIFLKRTLSKEILFRELEVRQVALRHLIHFLKEIGDQKLLLDLFRFLDRTEELALSHYREHLNIQDPDKRKEFLKTCVGLPFSAEDSAHIQDHYTLLERQIIIEANDRHLESAGQTEIFRKHPRKASILNMPLVTTLFYSCFYHYTEAEGTFSSPVNLKKTFKIPDKQYVLTALAARAKLRAWNDVDALFTTKNWLGYTKKRAPIGFHRVVEILHKNNAPVQILQEYVNLVEDVDTKLNLATKFKCHDVVIDTYRDLKDRQQLLAYRSKVDKGSAEEEKIDALLSSSQIRWKN [VIPAS39] | 0.111 | 0.126 | 0.142 | -0.125 | 49.5 | 49.2 |
| MNSAEQTVTWLITLGVLESPKKTISDPEGFLQASLKDGVVLCRLLERLLPGTIEKVYPEPRSESECLSNIREFLRGCGASLRLELLFPPSQPPQHLVTTILLSASTFDANDLYQGQNFNKVLSSLVTLNKVTADIGLGSDSVCARPSSHRIKSFDSLGSQSLHTRTSKLFQGQYRSLDMTDNSNNQLVVRAKFNFQQTNEDELSFSKGDVIHVTRVEEGGWWEGTLNGRTGWFPSNYVREVKASEKPVSPKSGTLKSPPKGFDTTAINKSYYNVVLQNILETENEYSKELQTVLSTYLRPLQTSEKLSSANISYLMGNLEEICSFQQMLVQSLEECTKLPEAQQRVGGCFLNLMPQMKTLYLTYCANHPSAVNVLTEHSEELGEFMETKGASSPGILVLTTGLSKPFMRLDKYPTLLKELERHMEDYHTDRQDIQKSMAAFKNLSAQCQEVRKRKELELQILTEAIRNWEGDDIKTLGNVTYMSQVLIQCAGSEEKNERYLLLFPNVLLMLSASPRMSGFIYQGKLPTTGMTITKLEDSENHRNAFEISGSMIERILVSCNNQQDLQEWVEHLQKQTKVTSVGNPTIKPHSVPSHTLPSHPVTPSSKHADSKPAPLTPAYHTLPHPSHHGTPHTTINWGPLEPPKTPKPWSLSCLRPAPPLRPSAALCYKEDLSKSPKTMKKLLPKRKPERKPSDEEFASRKSTAALEEDAQILKVIEAYCTSAKTRQTLNSTWQGTDLMHNHVLADDDQPSLDSLGRRSSLSRLEPSDLSEDSDYDSIWTAHSYRMGSTSRKSCCSYISHQN [ARHGEF7] | 0.105 | 0.815 | 1.6 | -0.0942 | 48.5 | 49.6 |
| MNSNVENLPPHIIRLVYKEVTTLTADPPDGIKVFPNEEDLTDLQVTIEGPEGTPYAGGLFRMKLLLGKDFPASPPKGYFLTKIFHPNVGANGEICVNVLKRDWTAELGIRHVLLTIKCLLIHPNPESALNEEAGRLLLENYEEYAARARLLTEIHGGAGGPSGRAEAGRALASGTEASSTDPGAPGGPGGAEGPMAKKHAGERDKKLAAKKKTDKKRALRRL [UBE2S] | 0.347 | 1.11 | 0.461 | 0.0837 | 51 | 50.9 |
